B1: Calvin cycle protein CP12-2, chloroplastic (Arabidopsis thaliana (Mouse-ear cress)), Q9LZP9 (parent)
chain: MATIATGLNIATQRVFVTSENRPVCLAGPVHLNNSWNLGSRTTNRMMKLQPIKAAPEGGISDVVEKSIKEAQETCAGDPVSGECVAAWDEVEELSAAASHARDKKKADGSDPLEEYCKDNPETNECRTYDN
partner: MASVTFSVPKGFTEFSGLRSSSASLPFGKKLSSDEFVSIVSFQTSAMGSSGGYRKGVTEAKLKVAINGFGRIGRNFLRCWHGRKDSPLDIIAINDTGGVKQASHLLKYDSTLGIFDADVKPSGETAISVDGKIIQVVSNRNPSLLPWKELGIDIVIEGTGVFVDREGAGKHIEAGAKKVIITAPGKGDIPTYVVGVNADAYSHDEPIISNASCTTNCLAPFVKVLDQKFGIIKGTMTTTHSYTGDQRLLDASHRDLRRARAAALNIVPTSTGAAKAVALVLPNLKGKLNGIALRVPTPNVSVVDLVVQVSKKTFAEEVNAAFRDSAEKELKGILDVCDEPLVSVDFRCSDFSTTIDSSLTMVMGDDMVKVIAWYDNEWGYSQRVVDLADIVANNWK

Variants of: B1
Conditions: with GAPA1, P25856

effect of a mutation on the interaction	Variant
disrupting interaction	C126S

Reference: IntAct's records for PubMed 17947231
